Laboratory results taken from the supplement of paper PMC7877785.
± gives the uncertainty stated by the source.

Experiment: self-splicing fitness, log relative to wild type (ln ratio); higher = more splicing; Tetrahymena group I intron in knt gene, E. coli kanamycin selection, DiMSum; sequences stand for … in CUCUCU…GGAGGGAAAAGUUAUCAGGCAUGCACCUGGUAGCUAGUCUUUAAACCAAUAGAUUGCAUCGGUUUAAAAGGCAAGACCGUCAAAUUGCGGGAAAGGGGUCAACAGCCGUUCAGUACCAAGUCUCAGGGGAAACUUUGAGAUGGCCUUGCAAAGGGUAUGGUAAUAAGCUGACGGACAUGGUCCUAACCACGCAGCCAAGUCCUAAGUCAACAGAUCUUCUGUUGAUAUGGAUGCAGUUCACAGACUAAAUGUCGGUCGGGGAAGAUGUAUUCUUCUCAUAAGAUAUAGUCGGACCUCUCCUUAAUGGGAGCUAGCGGAUGAAGUGAUGCAACACUGGAGCCGCUGGGAACUAAUUUGUAUGCGAAAGUAUAUUGAUUAGUUUUGGAGUACUCGUGGUCG
In short: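 Library with all eight P1ex-region intron nucleotides randomised, intron inside the knt kanamycin-resistance gene on pET-22b(+), in E. coli BL21(DE3). Cells grew overnight at 37°C or 30°C on LB agar with or without 25 μg/mL kanamycin (plus 100 μg/mL carbenicillin, 50 μM IPTG, 0.2% rhamnose), in six replicate transformations. Pooled colonies were amplicon-sequenced on Illumina HiSeq 2500. DiMSum fitness is the error-weighted combination of wild-type-normalised replicate fold changes, kanamycin versus none.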

Sequence | self-splicing fitness (ln) (30 °C) | self-splicing fitness (ln) (37 °C)
AACAAGCAAUAUUACGGGCG | -0.896 ± 0.075 | -1.08 ± 0.089
CUUUAGCAAUAUUACGGUGU | -3.52 ± 0.21 | -3.12 ± 0.25
CAUCAGCAAUAUUACGUCUG | -0.675 ± 0.047 | 0.264 ± 0.059
CGGCAGCAAUAUUACGCGUG | -1.47 ± 0.1 | -0.594 ± 0.11
CAUUAGCAAUAUUACGCUAU | -3.47 ± 0.3 | -2.99 ± 0.28
GCCUAGCAAUAUUACGCGCU | -2.19 ± 0.13 | -0.269 ± 0.11
CCUAAGCAAUAUUACGCGCG | -3.42 ± 0.39 | -1.9 ± 0.25
GGGUAGCAAUAUUACGUAGG | -2.74 ± 0.24 | -1.5 ± 0.2
UGGCAGCAAUAUUACGCAGU | -4.13 ± 0.36 | -2.57 ± 0.21
CCGAAGCAAUAUUACGGUGC | -3.26 ± 0.3 | -2.26 ± 0.39
AGGAAGCAAUAUUACGCCAU | -3.16 ± 0.27 | -2 ± 0.38
GGAAAGCAAUAUUACGAACU | -0.854 ± 0.1 | 0.214 ± 0.12
AACAAGCAAUAUUACGGCGA | -0.0322 ± 0.064 | -0.329 ± 0.071
CUGUAGCAAUAUUACGGACG | -1.53 ± 0.12 | -0.319 ± 0.15
CCCUAGCAAUAUUACGUCAA | -3.16 ± 0.32 | -3.46 ± 0.39
UGGCAGCAAUAUUACGUCUC | -1.64 ± 0.11 | -0.21 ± 0.13
ACGUAGCAAUAUUACGCAUG | -2.97 ± 0.15 | -0.981 ± 0.11
CUCGAGCAAUAUUACGAGAU | -2.87 ± 0.23 | -2.76 ± 0.27
CACAAGCAAUAUUACGGUUA | -1.01 ± 0.076 | -0.918 ± 0.078

Sequence | self-splicing fitness (ln) (30 °C) | self-splicing fitness (ln) (37 °C)
GUUUAGCAAUAUUACGUAAA | -2.64 ± 0.18 | -0.672 ± 0.18
AGGUAGCAAUAUUACGCUCC | -3.31 ± 0.052 | -2.43 ± 0.064
GAACAGCAAUAUUACGGCAU | -0.904 ± 0.085 | -0.254 ± 0.096
AGAUAGCAAUAUUACGUAGU | -2.61 ± 0.11 | -2.46 ± 0.15
GCCGAGCAAUAUUACGUUAU | -2.06 ± 0.098 | -2.43 ± 0.18
ACUCAGCAAUAUUACGUAUG | -3.11 ± 0.24 | -1.35 ± 0.16
CGAGAGCAAUAUUACGUCUC | -3.03 ± 0.22 | -3.17 ± 0.35
CCACAGCAAUAUUACGAUUA | -3.92 ± 0.18 | -2.11 ± 0.13
CGUGAGCAAUAUUACGUUGU | -4.24 ± 0.26 | -1.58 ± 0.17
GUCAAGCAAUAUUACGAGAC | -3.46 ± 0.19 | -3.84 ± 0.26
GAUGAGCAAUAUUACGGUAG | -2.01 ± 0.14 | -2.2 ± 0.21
UCGUAGCAAUAUUACGUUGG | -2.59 ± 0.17 | -0.973 ± 0.17
CCAAAGCAAUAUUACGAGGA | -3.54 ± 0.17 | -2.79 ± 0.18
CAGCAGCAAUAUUACGUGGA | -3.09 ± 0.13 | -1.84 ± 0.12
ACCCAGCAAUAUUACGGGGG | -3.46 ± 0.17 | -2.43 ± 0.15
GGGUAGCAAUAUUACGCAUU | -0.339 ± 0.094 | -0.245 ± 0.1
UUUUAGCAAUAUUACGUUCU | -3.48 ± 0.37 | -1.17 ± 0.17
ACAAAGCAAUAUUACGUGGA | -3.55 ± 0.15 | -2.44 ± 0.11
